Experimental data: US20220233638A1 (WASEDA UNIVERSITY, published 2022)

Molecular target: T1, GST-DLA88-α3 (dog, UniProt P18466 207-299)
T1 construct: also called recombinant protein containing only α3 domain of DLA88; not shown: glutathione S-transferase (GST) tag of expression vector pGEX-6p-1
Assay: biolayer interferometry (BLItz); GST-DLA88-α3 immobilised on anti-GST sensor, GST-LILRB3 D1/D2 loaded as sample
Procedure: The recombinant proteins DLA88-α3 and LILRB3-D1/D2 used in (b) were separately incubated at 37° C. for 2 hr, and immobilized on the BLI sensor for 5 min using DLA88-α3 as a ligand. LILRB3-D1/2D was loaded as a sample at the indicated concentrations.
BLItz™ ([…]) was used to analyze the dynamics between DLA88-α3 and LILRB3-D1/D2. A GST sensor and an anti-GST antibody-immobilized sensor ([…]) were used. GST-DLA88-α3 and GST-LILRB3-D1/D2 were separately incubated at 37° C. for 2 hr. GST-DLA88-α3 was immobilized on the GST sensor as a ligand molecule for 5 min and completely covered with the GST sensor. After washing with PBS-T (5% Tween-PBS) for 30 sec, GST-LILRB3 D1/D2 was loaded as a sample while trembling for 2 min. In addition to association kinetics, dissociation kinetics was evaluated in PBS-T buffer for 2 min. The recombinant protein GST-GFP was used as a control.

T1 sequence (P18466 other isoform, or with tags, fused parts or gaps): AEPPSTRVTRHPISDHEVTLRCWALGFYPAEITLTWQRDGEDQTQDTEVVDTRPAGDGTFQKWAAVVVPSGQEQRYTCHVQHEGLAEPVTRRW

- Kd: 6.54 µM
B1: GST-LILRB3-D1/D2 (receptor)
chain: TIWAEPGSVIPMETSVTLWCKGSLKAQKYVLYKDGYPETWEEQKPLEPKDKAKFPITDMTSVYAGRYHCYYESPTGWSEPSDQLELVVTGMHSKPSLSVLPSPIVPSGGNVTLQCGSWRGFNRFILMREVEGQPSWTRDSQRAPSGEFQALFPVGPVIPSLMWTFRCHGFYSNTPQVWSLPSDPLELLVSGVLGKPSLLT
notes: also called LILRB3-D1/2D; not shown: glutathione S-transferase (GST) tag of expression vector pGEX-6p-1
